From the DeepSol protein solubility set

test: soluble on expression in E. coli; label from the status in PepcDB or PDB records

Sequence | soluble on expression in E. coli
MTKFNWHESAEKKWDSSAEFWNQNSQEMWDSGSRSTIIPFFEQYVKKEAQVLDVGCGDGYGTYKLSSAGYKAVGVDLSEVMIQKGKERGEGPNLSFIKGDLSALPFENEQFESIMAINSLEWTEEPLRALNEIKRVLKKDGYACIAILGPTAKPRENSYLRLYGKDVVCNTMMPWEFEQLAKEQGFKVIDGIGVYKRGVNEKMLGQLPTELQQSLTFLWVFMLKNV | not soluble
MTKIGINGFGRIGRNVFRAALNNSEVEVVAINDLTDAKTLAHLLKYDTVHGTLNAEVSANENSIVVNGKEIKVIAERDPAQLPWSDYGVEVVVESTGRFTKKSDAEKHLGGSVKKVIISAPASDEDITVVMGVNHEQYDAANHNVVSNASCTTNCLAPFAKVLNEKFGVKRGMMTTIHSYTNDQQILDLPHKDLRRARAAAENMIPTSTGAAKAVALVLPELKGKLNGGAVRVPTANVSLVDLVVELDKEVTVEEVNAAFKAAAEGELKGILGYSEEPLVSIDYNGCTASSTIDALSTMVMEGNMVKVLSWYDNETGYSNRVVDLAAYMTSKGL | soluble
MTKLAVVGATGLVGTKMLETLNRKNIPFDELVLFSSARSAGQEVEFQEKTYTVQELTDARASEHFDYVLMSAGGGTSEHFAPLFEKAGAIVIDNSSQWRMAEDIDLIVPEVNEPTFTRGIIANPNCSTIQSVVPLKVLQDAYGLKRVAYTTYQAVSGSGMKGKKDLAEGVNGKAPEAYPHPIYNNVLPHIDVFLENGYTKEEQKMIDETRKILNAPDLKVTATCARVPVQDSHSVEIDVTLDKETTAEDIKALFDQDDRVVLVDNPENNEYPMAINSTNKDEVFVGRIRRDDSLENTFHVWCTSDNLLKGAALNAVQVLEQVMRLKGAN | soluble
MTKLTIFYDGTCPLCAKEMKALRQHDHKQEINTVDIYSDAFSAYPQINPDRANTILHALDNQGNLLLGLDVTYRAWQLVGRGWLYAPLRWPLIRPVADWLYLRFAQNRYRISYWLTGTSRCNSGRCSRLEHHHHHH | soluble
MTKNDNTIFKDIYQLWFTQYKQTVKESTWVTTQRLFRLHILPIFSDYRIAKISIKDCQKAINQWFNAGLAKYHTLMNYVAKVLDYAINIDLISENPAKRVIVPVNKNDRSLEHHHHHH | soluble
MTKRGPDDLQLSLRNGVGGASTTAPGVAAAAYYANVMTADSEPKKAKLDPTLYSSQFYTPAMHHGLMTADASTVAAVTAAANATTAQLLTGNPITQIQGIQLSTLPQCNSTSAVTSIPVSKVVHVRNIPPDLVDVELMQLCIQYGPVSNYMMLKGKSQAFVEYEEEASAAAFVSGMTAVPIQIRGRTLFAQYSTHRELKFDKNKAISDTESVANGSVSNFEVGTQQQPNSVLRTIIENMMFPVSLDVLYQLFTRYGKVLRIITFNKNNTFQALVQMSEANSAQLAKQGLENQNVYNGCCTLRIDYSKLSTLNVKYNNDKSRDYTNPNLPAGEMTLEQTIAMSIPGLQNLIPANPYNFAFGANPATTFLTTQLAASTAAAAAVNDSANAAALAPYLNPLGLTSANLAPSISSMRFPMINLTPVILVSNLHEMKVTTDALFTLFGVYGDVMRVKILYNKKDNALIQYSEPQQAQLALTHLDKVKWHDRLIRVAPSKHTNVQMPKEGQPDAGLTRDYAHSTLHRFKKPGSKNYLNIYPPCATLHLSNIPTSVSEEKLKEMFAEAGFAVKAFKFFPKDHKMALCQLEDIETAIDALIAMHNHKLAENAHLRVSFSKSGI | not soluble
MTKSLPGVADLRLGANHPRMWTRRVQGTVVNVGVKVLPWIPTPAKRILSAGRSVIIDGNTLDPTLQLMLSTSRIFGVDGLAVDDDIVASRAHMRAICEAMPGPQIHVDVTDLSIPGPAGEIPARHYRPSGGGATPLLVFYHGGGWTLGDLDTHDALCRLTCRDADIQVLSIDYRLAPEHPAPAAVEDAYAAFVWAHEHASDEFGALPGRVAVGGDSAGGNLSAVVCQLARDKARYEGGPTPVLQWLLYPRTDFTAQTRSMGLFGNGFLLTKRDIDWFHTQYLRDSDVDPADPRLSPLLAESLSGLAPALIAVAGFDPLRDEGESYAKALRAAGTAVDLRYLGSLTHGFLNLFQLGGGSAAGTNELISALRAHLSRV | soluble
MTKTSKASGLSWFFCDLDGTLLRYQNNQHLIEPTTKRAVAQLVESGANFVVATGRKPSDVRNIYKELGIEQASPYLIANNGAVVWDLKRNSYLNKQTLSLSDFDLIDHINQTLNQLNHEYGCILYGLNDQVYFYHIHAPDSQAFKQYFAFYEGEFVQNQYLEIDGLKTEYNLVKAIWFFKEVHQQKAVIAQHFTNQERLVITSAHSFELVPLNVSKGHAINLIKQQVKITDNQIMVLGDSYNDLPMFQHGVVKVTNHLAPDNLKQLATRVYELPASLFVGQALNDYFKFD | not soluble
MTKYALVGDVGGTNARLALCDIASGEISQAKTYSGLDYPSLEAVVRVYLDEHSVSVEDGCIAIACPITGDWVAMTNHTWAFSIAEMKKNLGFSHLEIINDFTAVSMAIPMLKKEHLIQFGGGEPVDGKPIAVYGAGTGLGVAHLVHVDKRWISLPGEGGHVDFAPNSEEEAMILEILRAEIGHVSAERVLSGPGLVNLYRAIVKSDNRLPENLRPKDITERALADSCIDCRRALSLFCVIMGRFGGDLALTMGTFGGVYIAGGIVPRFLEFFKASGFRGGFEDKGRFKDYVHGIPVYLIVHDNPGLLGSGAHLRQTLGHIL | not soluble
MTLELLQAQAQNCTACRLMEGRTRVVFGEGNPDAKLMIVGEGPGEEEDKTGRPFVGKAGQLLNRILEAAGIPREEVYITNIVKCRPPQNRAPLPDEAKICTDKWLLKQIELIAPQIIVPLGAVAAEFFLGEKVSITKVRGKWYEWHGIKVFPMFHPAYLLRNPSRAPGSPKHLTWLDIQEVKRALDALPPKERRPVKAVSQEPLF | soluble
MTLHLPGADGTLRAYEPRTEPLPTLRATSGSAFSSRTVFSAAHVVADPYADTTPDGPAAVDWDATLAFRRHLWSHGLGVAEAMDTAQRGMGLDWPTAAELIRRSAAEARATGGRIACGVGTDQLTATAATLADVRSAYEEQLAVVEESGAQAILMASRALAATAKGPDDYLEVYGHLLRQAAEPVILHWLGPMFDPALEGYWGSSDLDAATDTFLEVIAAHPDKVDGIKVSLLDAQREIDLRRRLPRGVRCYTGDDFNYPELIAGDEQGFSHALLGIFDPLGPLAAEAVRVLDTGDTDGFRALLDPTVELSRHLFRAPTRYYKTGVVFLAWLAGHQSHFTMVGGLQSARSLPHLARAYELADGLGLFPDPKPAEERMRNLLALYGVN | not soluble
MTLKGMSYVMCTGSFKLEKEVAETQHGTVLVQVKYEGTDAPCKIPFSTQDEKGATQNGRLITANPIVTDKEKPVNIEAEPPFGESYIVVGAGEKALKLSWFKKGSSIG | soluble
MTLMKSNLIAAAEIDRLDTWAKYTAPMCGSCMSSCCTLPVEVKIKDLIRIGIVDEFERGEPAKNIAKRLQKEGIVERYNQKSEIFTLQRMSNNDCLYLDRKSRLCTIYDKRPDTCRNHPKIGPRPGYCAYKPKPQVRPTNTSSRTLERFLEHHHHHH | not soluble
MTLSAIQPNDMALYHYDSCPFCAKTRHAINELDLNIELRNIQKNHQHRIELQQGGNKTQVPCLRIGQSNGKAQWLYESGDIINFLRNRK | not soluble
MTLTRGSFTYSSGEEYTGEWKEGRRHGKGELKFADGTCYKGHFENGLFHGSGVLVFPDGSRYEGEFAQGKFQGVGIFSRFDGMKFEGEFKSGRVEGHGLLTFPDGSHGAPRNEGMFENNKLLKREKCQAVVQRAKNSASTARGLSV | soluble
MTLTSDDLRQIAALTLAHYDDNAVSFEVGTRDHDVSQNIAALLRHIQGDPPYAILDFGCGPGRDLKTFAALGHAAVGLDGAAHFVAMAHQATGCEVWQQDFLRLALPAGRFDGIFANASLFHVPTQELPRVLGELRDTLKPGGVLFCSNPRGGNEEGWSRGRYGVWHDWESWRALLEAAGFQALEHYYRPAGLPREQQQWLASVWRRLEHHHHHH | soluble
MTLYEYDGSHVRKRVFQNTSWIFVTGDRYDIETLYDQLDSTRLKYEYSTMPDIYGYQDGIKIWVRPSHARMVGEIIFSNIGYGRRYRVYNADIDPVLRFMASNGLSFFEMRSVYDPDPDLNVAMVDCSHGKCIVDGEAMGDGRIYDRLMDSHVIVYEGTEQFYRKLMALGIRARYYPGKSFTSYGQISYRDSYLDIADRIAINSRSFFYAESGLSGIYEVSRISHLPPLYVSIVTPGTAVSSMELAEAVKKGMLVPFKKDDHENPKTKWEIMAKDRGGLIFQPLPGLYTDVYEIDFSSMYPSIIVRYDLTPGRISFLPEALEGLLSRRLIYKKMDGESVVYHSRNVALKWLLLTSFGYTGYKNAKFGKIEVHERITELGRKALAEAIAVAHENGFEMIHGIVDSLWIRGSGSIERVVSEISRRTRIDIVVSGHYHWIAFLPERDGTGSPSRYIGLDTSGKYKIRGLMIRRSDVPDLCKAFQMDALRVLSSCTDTRCILEKRREIMDLENYYLRNIRHFPRSYFMVSRKITRRPDEYHVKNLTRSALDLCRDAEELSPGQMISYYVVDEKRKIVDTDGENGIDYGYYRRCLTRALEEINFLFGKNCNIRRLEDFQSFQ | not soluble
MTNSNRRKFLKATGVGLLGGLAGCTRGGDSSGGDGSDGSSDGSDGSGGSDGGTSTSGSDGELAIPLSEYEDADIDWRQFEGSSINIGAVQHPWVSAIKPAVPVFEELTGIDVVWNVLPEQQFRTKRQTDVSTGAGQFDVFYMDQVVNQFREEGWIQPLDPFFDDDSLFDEDWYEPDDLFEASRWQAHGGGYSDTWTGMPITVEVQTQFYRKDLYDKHDLEVAETLEQFRQNAQTIHENESDVVGTVGRGDKGYGMNIYILNTFLREFGTSLWTEFPTDSGLDSDGVINAAEWYVSLLQDYGPEGASTQTWSDVLSTMQEGRAGHIVSDANLFWPGLTGSDSSVADNIGIAKAPSPADGQFSPNAFNWQISTSKNAQNSEQAFLFMVWASSQPTNTWMHVEGDAAFSVRQSVWENDEFRSRVGENFAQVTLESLQEAAPDPFDRKYPQWGQRYSEELQRAIAGQKSAEEAMTKAASVAEDIYSN | not soluble
MTPEAAYQNLLEFQRETAYLASLGALAAWDQRTMIPKKGHEHRARQMAALARLLHQRMTDPRIGEWLEKVEGSPLVQDPLSDAAVNVREWRQAYERARAIPERLAVELAQAESEAESFWEEARPRDDWRGFLPYLKRVYALTKEKAEVLFALPPAPGDPPYGELYDALLDGYEPGMRARELLPLFAELKEGLKGLLDRILGSGKRPDTSILHRPYPVEAQRRFALELLSACGYDLEAGRLDPTAHPFEIAIGPGDVRITTRYYEDFFNAGIFGTLHEMGHALYEQGLPKEHWGTPRGDAVSLGVHESQSRTWENLVGRSLGFWERFFPRAREVFASLGDVSLEDFHFAVNAVEPSLIRVEADEVTYNLHILVRLELELALFRGELSPEDLPEAWAEKYRDHLGVAPKDYKDGVMQDVHWAGGLFGYFPTYTLGNLYAAQFFQKAEAELGPLEPRFARGEFQPFLDWTRARIHAEGSRFRPRVLVERVTGEAPSARPFLAYLEKKYAALYG | soluble
MTPEIKVKSMRSVGTQVDVQCITYGLAGFDSVFKHCGVFSGEEHNVSSIWKGPVRMVERKTETESFEISQYGETVFKPSLQLLVGTSDEIAFSLLRHVFSKMDIIELRHYLQVLGFEKTFNLMYNLGEEFIEGEIPVDERILLDEIEALESFTVSNMTIEEEIEARRVERLALKFVEEMYNPDTENDEQIALLLHSEMNDENGDNDLIEEDYFNIANLEESFPGTNKKVVREAYNIAGRKVDFTREILLSNGEVENTYAVKLKPKPTWSKKVASSPSPLRLSLPKKSKKEEENHFLKKRSGRHSQLEEIQLLAIRTRQKIEADRITSSNSMAAAKYRQLIIVDRASRMKIEKSSEVKELDRKIREAHNNPWFLDLHYMSVDGAVKLVKEAIEAVKYHLKAARNLDRRITVVTGSGNNSKCGAKIKPQVLAMLQHNDYNYELVNDGCIRFKV | not soluble
